B1: Proto-oncogene vav, residues 782 to 842; numbered along this chain, P15498 (parent)
chain: KYFGTAKARYDFCARDRSELSLKEGDIIKILNKKGQQGWWRGEIYGRVGWFPANYVEEDYS

± gives the uncertainty stated by the source.

This series covers variants of B1. In words: abundance fitness (aPCA) (normalised: wild type 0, dead -1); higher = more abundant; growth selection in yeast, the domain comes from the species named. To be noted: Homo sapiens.
As to KYFGTAKARYDFCAYDRSELSLKEGDIIKILNKKGQQGWWRGEIYGRVGWFPANYVEEDYS [R15Y], the abundance fitness is -0.414 ± 0.14.

Take KYFGTAKARYDFCASDRSELSLKEGDIIKILNKKGQQGWWRGEIYGRVGWFPANYVEEDYS [R15S]: the abundance fitness is -0.386 ± 0.089. Take KYFGTAKARYDFCAVDRSELSLKEGDIIKILNKKGQQGWWRGEIYGRVGWFPANYVEEDYS [R15V]: the abundance fitness is -0.471 ± 0.093. As for KYFGTAKARYDFCATDRSELSLKEGDIIKILNKKGQQGWWRGEIYGRVGWFPANYVEEDYS [R15T], the abundance fitness is -0.181 ± 0.1. For KYFGTAKARYDFCARDFSELSLKEGDIIKILNKKGQQGWWRGEIYGRVGWFPANYVEEDYS [R17F] the value was -0.315 ± 0.15; for KYFGTAKARYDFCARDCSELSLKEGDIIKILNKKGQQGWWRGEIYGRVGWFPANYVEEDYS [R17C], 0.1 ± 0.18; for KYFGTAKARYDFCARDGSELSLKEGDIIKILNKKGQQGWWRGEIYGRVGWFPANYVEEDYS [R17G], -0.012 ± 0.09.

KYFGTAKARYDFCARDASELSLKEGDIIKILNKKGQQGWWRGEIYGRVGWFPANYVEEDYS [R17A]: the abundance fitness worked out at 0.056 ± 0.072. On to KYFGTAKARYDFCARDNSELSLKEGDIIKILNKKGQQGWWRGEIYGRVGWFPANYVEEDYS [R17N], for which the abundance fitness was determined as 0.061 ± 0.16. As for KYFGTAKARYDFCARDMSELSLKEGDIIKILNKKGQQGWWRGEIYGRVGWFPANYVEEDYS [R17M], the abundance fitness was -0.06 ± 0.1. With KYFGTAKARYDFCARDQSELSLKEGDIIKILNKKGQQGWWRGEIYGRVGWFPANYVEEDYS [R17Q], the abundance fitness was -0.044 ± 0.1. Turning to KYFGTAKARYDFCARDHSELSLKEGDIIKILNKKGQQGWWRGEIYGRVGWFPANYVEEDYS [R17H], the abundance fitness is -0.076 ± 0.15.

With KYFGTAKARYDFCARDKSELSLKEGDIIKILNKKGQQGWWRGEIYGRVGWFPANYVEEDYS [R17K], the abundance fitness came to 0.065 ± 0.12. The value for KYFGTAKARYDFCARDWSELSLKEGDIIKILNKKGQQGWWRGEIYGRVGWFPANYVEEDYS [R17W] was -0.223 ± 0.11; that for KYFGTAKARYDFCARDDSELSLKEGDIIKILNKKGQQGWWRGEIYGRVGWFPANYVEEDYS [R17D] was -0.046 ± 0.12; that for KYFGTAKARYDFCARDYSELSLKEGDIIKILNKKGQQGWWRGEIYGRVGWFPANYVEEDYS [R17Y] was 0.107 ± 0.16. As to KYFGTAKARYDFCARDESELSLKEGDIIKILNKKGQQGWWRGEIYGRVGWFPANYVEEDYS [R17E], the abundance fitness is -0.027 ± 0.11. Regarding KYFGTAKARYDFCARDTSELSLKEGDIIKILNKKGQQGWWRGEIYGRVGWFPANYVEEDYS [R17T], the abundance fitness was -0.027 ± 0.12. For KYFGTAKARYDFCARDLSELSLKEGDIIKILNKKGQQGWWRGEIYGRVGWFPANYVEEDYS [R17L], the abundance fitness turned out to be 0.035 ± 0.065. For KYFGTAKARYDFCARDVSELSLKEGDIIKILNKKGQQGWWRGEIYGRVGWFPANYVEEDYS [R17V] the value was -0.014 ± 0.058; for KYFGTAKARYDFCARDPSELSLKEGDIIKILNKKGQQGWWRGEIYGRVGWFPANYVEEDYS [R17P], 0.031 ± 0.11; for KYFGTAKARYDFCARDRSSLSLKEGDIIKILNKKGQQGWWRGEIYGRVGWFPANYVEEDYS [E19S], -0.417 ± 0.094.

With KYFGTAKARYDFCARDRSQLSLKEGDIIKILNKKGQQGWWRGEIYGRVGWFPANYVEEDYS [E19Q], the abundance fitness was -0.103 ± 0.19.

KYFGTAKARYDFCARDRSHLSLKEGDIIKILNKKGQQGWWRGEIYGRVGWFPANYVEEDYS [E19H]: the abundance fitness was -0.137 ± 0.21. Turning to KYFGTAKARYDFCARDRSWLSLKEGDIIKILNKKGQQGWWRGEIYGRVGWFPANYVEEDYS [E19W], the abundance fitness was -0.445 ± 0.15. Consider KYFGTAKARYDFCARDRSCLSLKEGDIIKILNKKGQQGWWRGEIYGRVGWFPANYVEEDYS [E19C], for which the abundance fitness is -0.502 ± 0.14. The value for KYFGTAKARYDFCARDRSGLSLKEGDIIKILNKKGQQGWWRGEIYGRVGWFPANYVEEDYS [E19G] was -0.678 ± 0.14; that for KYFGTAKARYDFCARDRSVLSLKEGDIIKILNKKGQQGWWRGEIYGRVGWFPANYVEEDYS [E19V] was -0.922 ± 0.2; that for KYFGTAKARYDFCARDRSDLSLKEGDIIKILNKKGQQGWWRGEIYGRVGWFPANYVEEDYS [E19D] was -0.654 ± 0.25. The value for KYFGTAKARYDFCARDRSALSLKEGDIIKILNKKGQQGWWRGEIYGRVGWFPANYVEEDYS [E19A] was -1 ± 0.34; that for KYFGTAKARYDFCARDRSLLSLKEGDIIKILNKKGQQGWWRGEIYGRVGWFPANYVEEDYS [E19L] was -0.593 ± 0.098. Consider KYFGTAKARYDFCARDRSFLSLKEGDIIKILNKKGQQGWWRGEIYGRVGWFPANYVEEDYS [E19F], for which the abundance fitness was -0.657 ± 0.28.

As for KYFGTAKARYDFCARDRSMLSLKEGDIIKILNKKGQQGWWRGEIYGRVGWFPANYVEEDYS [E19M], the abundance fitness came out at 0 ± 0.1. Turning to KYFGTAKARYDFCARDRSTLSLKEGDIIKILNKKGQQGWWRGEIYGRVGWFPANYVEEDYS [E19T], the abundance fitness was -0.838 ± 0.19.

As for KYFGTAKARYDFCARDRSKLSLKEGDIIKILNKKGQQGWWRGEIYGRVGWFPANYVEEDYS [E19K], the abundance fitness was -0.885 ± 0.22. In the case of KYFGTAKARYDFCARDRSYLSLKEGDIIKILNKKGQQGWWRGEIYGRVGWFPANYVEEDYS [E19Y], the abundance fitness was -0.763 ± 0.38. The value for KYFGTAKARYDFCARDRSRLSLKEGDIIKILNKKGQQGWWRGEIYGRVGWFPANYVEEDYS [E19R] was -1.08 ± 0.32; that for KYFGTAKARYDFCARDRWELSLKEGDIIKILNKKGQQGWWRGEIYGRVGWFPANYVEEDYS [S18W] was -0.258 ± 0.084. Take KYFGTAKARYDFCARDRRELSLKEGDIIKILNKKGQQGWWRGEIYGRVGWFPANYVEEDYS [S18R]: the abundance fitness is -0.156 ± 0.057.

As to KYFGTAKARYDFCARDRDELSLKEGDIIKILNKKGQQGWWRGEIYGRVGWFPANYVEEDYS [S18D], the abundance fitness is -0.169 ± 0.2. For KYFGTAKARYDFCARDRLELSLKEGDIIKILNKKGQQGWWRGEIYGRVGWFPANYVEEDYS [S18L], the abundance fitness is -0.368 ± 0.073. On to KYFGTAKARYDFCARDRKELSLKEGDIIKILNKKGQQGWWRGEIYGRVGWFPANYVEEDYS [S18K], for which the abundance fitness is -0.239 ± 0.13. Take KYFGTAKARYDFCARDRQELSLKEGDIIKILNKKGQQGWWRGEIYGRVGWFPANYVEEDYS [S18Q]: the abundance fitness is -0.451 ± 0.15.

Values taken from the Human Domainome abundance scans (Beltran et al. 2025).
